# The nanobody polyreactivity screen of Harvey et al. (2022)
# Experiment: yeast display, Sf9 membrane polyspecificity reagent, FACS + sequencing; frameworks hold sequencing errors
# Outline: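 Nanobodies from a synthetic yeast display library (Saccharomyces cerevisiae BJ5465), induced 36–48 hours with galactose, were stained 1 hour at 4 °C with 10% biotinylated, detergent-solubilized Sf9 membrane reagent, enriched on streptavidin microbeads, then FACS-sorted. Anti-HA (expression) and streptavidin (reagent binding) fluorescence set low and high (top ~1%) gates. Polyreactivity labels come from the gate of origin. Genes were colony-PCR amplified, MiSeq 2 × 250 sequenced and filtered by CDR length.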
row,Sequence,polyreactivity (PSR sort gate)
1,QVQLVESGGGLVQAGGSLRLSCAASGGTFVRYAMGWYRQAPGKERELVAAISRSGGSTYYADSVKGRFTISRDNAKNTVYLQMNSLKPEDTAVFYCNKDRQRYGEDYWGQGTQVTVSS,high polyreactivity
2,QVQLVESGGGLVQAGGSLRLSCAASGGTFVYALGWYRQAPGKERELVAAISARTTGTYYADSVKGRFTISRDNAKNTVYLQMNSLKPEDTAVYYCAAKSKLSRDLYSWGQGTQVTVSS,low polyreactivity
3,QVQLVESGGGLVQAGGSLRLSCAASGGTFWAYTRGWYRQAPGKERELVATISFGTGNTYYADSVKGRFTISRDNAKNTVYLQMNSLKPEDTAVYYCAAQWPELTRSYVTVEVDYWGQGTQVTVSS,low polyreactivity
4,QVQLVESGGGLVQAGGSLRLSCAASGGTFWRNDMGWYRQAPGKERELVAAISYSGGTTYYADSVKGRFTISRDNAKNTVDLQMNSLKPEDTAVDYCATGGYSTRQSTFDYWGQGTQVTVSS,low polyreactivity
5,QVQLVESGGGLVQAGGSLRLSCAASGGTFYANAMGWYREAPGKERELVATITSSSGSTSYADSVKGRFTISRDNAKNTVYLQMNSLKPEDTAVYYCAKDSHAQGPYRYKHYHHTGDYWGQGTQVTVSS,low polyreactivity
6,QVQLVESGGGLVQAGGSLRLSCAASGGTFYAYAMGWYRQAPGKERELVAAITSGGRTYYADSVKGRFTISRDNAKNTVYLQMNSLKPEDTAVYYCAAKYFRGVKRDYWGQGTQVTVSS,high polyreactivity
7,QVQLVESGGGLVQAGGSLRLSCAASGGTFYEYVMGWDRQAPGKERELVAAISWGDGSTYYADSVKGRFTISRDNAKNTVYLQMNSLKPEDTAVYYCAADHTVFTYEYWGQGTQVTVSS,high polyreactivity
8,QVQLVESGGGLVQAGGSLRLSCAASGGTFYPYAMGWYRPAPGKERELVAAISASDDNTYYADSVKGRFTISRDNAKNTVYLQMNSLKPEDTAVYYCAKRSYFYPYYYWGQGTQVTVSS,high polyreactivity
9,QVQLVESGGGLVQAGGSLRLSCAASGGTFYRYAMGWYRQAPGKERELVAVISKRGGTTYYADSVKGRFTISRDNAKNTVYLQMNSLKPVDTAVYYCAVRAPQSYGYDYWGQGTQVTVSS,high polyreactivity
10,QVQLVESGGGLVQAGGSLRLSCAASGGTFYSYAMGWYRQAPGTERELVAAISRRGGSTYYADSVKGRFTISLDNAKNTVYLQMNSLKPEDTAVYYCNTYIYQVRDDYWGQGTQVTVSS,high polyreactivity
11,QVQLVESGGGLVQAGGSLRLSCAASGGTFYYNAMGWYRQAPGKERELVAAITDSGGRTYYADSVKGRFTISRDNAKNTVYLQMNSLKPEDTAVYYCAALARRQSRLYDYWGQGTQVTVSS,high polyreactivity
12,QVQLVESGGGLVQAGGSLRLSCAASGGTFYYNAMGWYRQAPGKERELVAAITSGDRTYYADSVKGRFTISRDNAKYTVYLQMNSLKPEDTAVYYCAARWFRSNKYWGQGTQVTVSS,high polyreactivity
13,QVQLVESGGGLVQAGGSLRLSCAASGGTFYYYAMGWSRQAPGKERELVAAISTSGTSTYYADSVKGRFTISRDNAKNTVYLQMNSLKPEVTAVYYCAARGLRVSSRGYYWGQGTQLTVSS,high polyreactivity
14,QVQLVESGGGLVQAGGSLRLSCAASGGTIAGYAMGWYRHAPGKERELVASISDGGSTNYADSVKGRFTISRDNAKNTVYLQMNSLKPEDTAVYYCADLAYVPSYTYDYWGQGTQVTVSS,low polyreactivity
15,QVQLVESGGGLVQAGGSLRLSCAASGGTIAYNAMGWYRQAPGKERELVAAISSSGGRTYYADSVKGRFTISRDNAKNTVYLQMNSLKPEDTAVYYCATPVTNGFDYWGQGTQVTVSS,high polyreactivity
16,QVQLVESGGGLVQAGGSLRLSCAASGGTILYYAMGWYRQAPGKEMELVAAISRGGSTHYADSVKWRFTISRDNAKNTVYLQMNRLKPEDTAVFYCAVDGGEFSSYGYWGHGTQVTVSS,low polyreactivity
17,QVQLVESGGGLVQAGGSLRLSCAASGGTISYYAMGRYRQAPRKERELVAAINWSGASTYYADSVKGRFTNSRDNAKYTVYLELNSLKPEETAVYYCAADSIQYTARPYDYWGQGTQVTVSS,low polyreactivity
18,QVQLVESGGGLVQAGGSLRLSCAASGGTIVGYAMGWYRQAPGKERELVAAIDSSGGSTYYADSVKGRFTISRDNAKNTVYLQMNSLKPEDTAVYYCAALSTNYYISPYYYYNSKGYDYWGQGTQVTVSS,high polyreactivity
19,QVQLVESGGGLVQAGGSLRLSCAASGGTIYDNTMGWYRQAPGKERELVAAISRDGSTNYADSVKGRFTISRDNAKNTVYLQMNSLKPEDTAVYYCNKDPVSEYRSPGFPVTYDYWGQGTQVTVSS,low polyreactivity
20,QVQLVESGGGLVQAGGSLRLSCAASGGTLFTNAMGWYRQAPGKERELVAAISWRGGRTYYADSVKGRFTISRDNAKNTVYLQMNSLKPEDTAVYYCAAASAAGYDYWGQGTQVTVSS,low polyreactivity
21,QVQLVESGGGLVQAGGSLRLSCAASGGTLQGNAMGWYRPAPGKERELVAAISSRGGRTYYADSVKGRFTSSRDNAKNTVYLQMNSLKPEDTAVYYCNAEYPVYFEGYPYYWDYWGDSWGQGTQVTVSS,high polyreactivity
22,QVQLVESGGGLVQAGGSLRLSCAASGGTLQGNAMGWYRQAPGKERELVAAISSRGGRTYYADSVKGRFTISRDNAKNTVYLQMNSLKPEDTAVYYCAAVQKGDSTLLRTKGGYWGQGTQVTVSS,high polyreactivity

row,Sequence,polyreactivity (PSR sort gate)
1,QVQLVESGGGLVQAGGSLRLSCAASGGTLVRYAMGWYRQAPGKERELVAAIDRDGDSTYYADSVKGRFTISRDNAKNTVYLQMNSLKPEDTAVYYCNADEIRQTDGYDYWGQGTQVTVSS,high polyreactivity
2,QVQLVESGGGLVQAGGSLRLSCAASGGTLYTYAMGWYRQAPGKEWEFVAAITVSGGRTYYADSVKGRFTISRDNAKNTVYLLMNSLKPEDTAVYYCAARYWSWRSFKVDYWGQGTQVTVSS,high polyreactivity
3,QVQLVESGGGLVQAGGSLRLSCAASGGTMLYYAMGWYRQAPRKEMELVAVITSSAGRTYYADSVKGRITISRDNAKITVYLLMNSLKPEDTAVSYCNATGYLVGSISIYDYWGQGTQVTVSS,low polyreactivity
4,QVQLVESGGGLVQAGGSLRLSCAASGGTYHANAMGWYRQAPGKERELVAGITSGGSTYYADSVKGRFTISRDNAKNTVYLQMNSLKPEDTAVYYCNARYPLNIIRGFVWWTVGHDYWGQGTQVTVSS,low polyreactivity
5,QVQLVESGGGLVQAGGSLRLSCAASGGTYRVKAMGWYRQAPGKEREFVAAISGSGSSTYYADSVKGRFTISRDNAKNTVYLQMNSLKPEDTAVYYCAARSCVGGDNDYWGQGTQVTVSS,low polyreactivity
6,QVQLVESGGGLVQAGGSLRLSCAASGHIFFYYTMGWYRQAPGKERELVAGITIGGSTNYADSVKGRFTISRDNAKNTVYLQMNSLKPEDTAVYYCNVVNYVYIYSYWEYYYWGQGTQVTVSS,low polyreactivity
7,QVQLVESGGGLVQAGGSLRLSCAASGHIFNYYAMGWYRQAPGKERELVAAIRSGARTSYADSVKGRFTISRDNAKNTVNLQMNSLKPEDTAVYYCAAVGVAYLYPSDYWGQGTQVPVSS,high polyreactivity
8,QVQLVESGGGLVQAGGSLRLSCAASGHTFYYYTMGWYRQAPGKERELVASIRNGGNTNYADSVKGRFTISRDTAKNTVYLQMHSLKPEDTAVYYCAAVFGWSYITAYDWGQGTQVTVSS,high polyreactivity
9,QVQLVESGGGLVQAGGSLRLSCAASGHTYRYYAMGWYRQAPGKERELVAAITGGGGSTYYADSVKGRFTISRDNAKNTVYLQMNSLKPEDTAVYYCATGGVSGIVGGDYWGQGTQVTVSS,low polyreactivity
10,QVQLVESGGGLVQAGGSLRLSCAASGIAYTYNAMGRYRQAPGKERELVASISRTGGSTRYADSVKGRFTISRDNAKYTVYLQMNSLKPEDTAVYYCAALSWRYVKYRFDYWGQGTQVTVSS,high polyreactivity
11,QVQLVESGGGLVQAGGSLRLSCAASGIFASYAMGWYRQAPGKERELVAAIRSSGGRTYYADSVKGRFTISRDNAKNTFYLQMNSLKPEDTAVYYCAARYYTYDGYSKYDFWGQGTQVTVSS,high polyreactivity
12,QVQLVESGGGLVQAGGSLRLSCAASGIFAWNAMGWYRQAPGKERELVAAISWSGGSTYADSVKGRFTISRDNAKNTVYLQMNSLKPEDTAVYYCAKVSSLTSKSDYWGQGTQVTVSS,low polyreactivity
13,QVQLVESGGGLVQAGGSLRLSCAASGIFDPNAMGWYRQAPGKERELVAAITSGGSTNYADSVKGRFTISRDNAKNTVYLQMNSLKPVDTAVYYCNADSYDEIKYGYWGQGTQVTVSS,low polyreactivity
14,QVQLVESGGGLVQAGGSLRLSCAASGIFDRYAMGWYRQAPGKERELVAAISYNAGSTYYADSVKGRFTISRDNAKNTVYLQMNSLKPEDTAVYYCAARGFGTVNGKLYGYWGQGTQVTVSS,high polyreactivity
15,QVQLVESGGGLVQAGGSLRLSCAASGIFDYYVMGWYIQAPGKERELVAAISKSVGSTYYADSVKGRFTISRDNAKNTVYLQMNSLKPEDTAVYYCAVENRYRFGYWGQGTQVTVSS,low polyreactivity
16,QVQLVESGGGLVQAGGSLRLSCAASGIFFQQYAMGWYRLAPGKERELVAAISRGGTRTYYADSVKGRFTISRDNAKNTGYLQMNSLKPEDTAVYYCAADRGYVSYDYWGQGTQVTVSS,high polyreactivity
17,QVQLVESGGGLVQAGGSLRLSCAASGIFGGYAMGWYRQAPGKERELVAAIRYSSGSTYYADSVKGRFTISRDNAKNTVYLQMKSLKPEDTAVYYCAAEVVEAPDNDYWGQGTQVTVSS,low polyreactivity
18,QVQLVESGGGLVQAGGSLRLSCAASGIFGGYAMGWYRQAPGKERELVAAISYSGGTTYYADSVKGRFTISRDNAKNTVYLQMNSLKPEDTAVYYCNADDPDYLVSYRYDYWGQGTQVTVSS,low polyreactivity
19,QVQLVESGGGLVQAGGSLRLSCAASGIFLVYAMGWYRQAPGKERELVAAIRSDASTNYADSVKGRFTISRDNAKNTVYLQMNILKPEDTAVYYCNTAQLVSDEFDYWGQGTQVTVSS,low polyreactivity
20,QVQLVESGGGLVQAGGSLRLSCAASGIFPWFAMGWYRQAPGKERELVAVITGGDSTNYADSVKGRFTISRDNAKNTVYLQMNSLKPEDTAVYYCAARNTGPVQYYYWGQGTQVTVSS,low polyreactivity
21,QVQLVESGGGLVQAGGSLRLSCAASGIFRSNAMGWYRQAPGKERELVAGISSGGGTNYADSVKGRFTISRDNAKNTVYLQMNSLKPDDTAVYYCAKERIYFYYWYVYTDLVYEYDYWGQGTQVTVSS,low polyreactivity
